Here are results for two molecules from US20220324970A1 (Janssen / Centocor, published 2022).

Read-outs that look alike come from different tables or passages of the source.

The EC50 is the concentration that produces a half-maximal response. A lower EC50 goes with a more potent agent. What is called Kd is the equilibrium constant for the complex coming apart. As usually defined, the kon is the second-order rate constant of association. Read a high kon as fast association. Usually koff stands for a measure of how fast the partners let go of each other. Low readings indicate slow dissociation, high ones fast dissociation.

Experiment [1] concerns the target T1, human pIgR, full-length, on cells (human, UniProt P01833 19-764). Briefly: cell-based or functional assay.
Experiment [2] deals with T1, human pIgR, full-length, on cells. Nature of the experiment: cell-based or functional assay. This is another data set of the same source.
The target is the same in experiment [3]. Briefly: flow cytometry on MDCK-hpIgR cells.
The target in experiment [4] is T2, human pIgR extracellular domain (ECD) (human, UniProt P01833 19-638).
T2 construct: also called hpIgR ECD
T2 sequence (P01833 other isoform, or with tags, fused parts or gaps): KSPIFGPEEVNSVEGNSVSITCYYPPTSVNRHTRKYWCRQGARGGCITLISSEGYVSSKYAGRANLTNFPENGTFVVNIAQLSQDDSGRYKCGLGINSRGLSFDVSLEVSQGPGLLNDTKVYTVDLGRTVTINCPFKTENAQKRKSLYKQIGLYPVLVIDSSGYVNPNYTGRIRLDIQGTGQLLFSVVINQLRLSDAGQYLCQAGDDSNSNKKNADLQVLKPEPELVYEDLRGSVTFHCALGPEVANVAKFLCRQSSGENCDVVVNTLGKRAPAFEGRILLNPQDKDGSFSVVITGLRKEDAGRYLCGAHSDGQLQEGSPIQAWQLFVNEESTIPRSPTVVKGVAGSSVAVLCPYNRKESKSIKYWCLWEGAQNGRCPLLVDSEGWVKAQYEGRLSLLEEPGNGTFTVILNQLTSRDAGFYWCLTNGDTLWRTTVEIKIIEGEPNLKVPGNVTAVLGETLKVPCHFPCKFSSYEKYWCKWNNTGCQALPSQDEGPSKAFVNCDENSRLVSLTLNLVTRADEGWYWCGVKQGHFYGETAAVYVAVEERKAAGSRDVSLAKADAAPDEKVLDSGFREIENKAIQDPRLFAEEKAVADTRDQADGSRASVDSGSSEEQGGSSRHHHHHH
Nature of the experiment: BLI; summary table, repeats Table 1.

The target in experiment [5] is T2, human pIgR extracellular domain (ECD). Briefly: BLI; summary table, repeats Table 1. The source holds these as a separate data set. On the technique in general: BLI is a label-free optical method that tracks binding on a fibre tip over time.
Experiment [6] has the same target. Nature of the experiment: BLI (Octet), VHH-mono-Fc and hpIgR ectodomain.
The target is the same in experiment [7]. Briefly: ECL (MSD), hpIgR-ECD coated, anti-Fc detection.
Experiment [8] has the same target. Nature of the experiment: ECL (MSD), hpIgR-ECD coated, anti-VHH detection.
Description: To check whether VHH recognizes a buried epitope on pIgR, EC₅₀ values were measured for VHH-mono-Fc molecules binding to hpIgR-ECD protein by electrochemiluminescence using two different detection antibodies, an anti-Fc antibody and an anti-VHH antibody. pIgR ECD (10 μg/ml in PBS) was coated on high-bind MSD plates for 2 hours at RT with 1000 rpm, incubated with blocking buffer for 1 hour at RT, incubated with VHH-mono-Fc molecules (increasing concentrations in PBS) for 2 hours at RT with 1000 rpm, washed 3× with PBT, incubated with ruthenylated secondary antibody (2 μg/ml in PBS) for 1 hour at RT with 1000 rpm, washed 3× with PBT and read plates in 40 ul reading buffer using the MSD imager. EC50 was calculated by fitting log VHH concentration versus log ECLU in Prism (Graphpad). The increase in EC₅₀ (>50-fold) due to anti-VHH detection was used as a measure to determine whether VHH recognized buried epitope on pIgR.
Experiment [9] has the same target. Briefly: ECL (MSD), anti-VHH detection against anti-Fc detection.
The target of experiment [10] is T1, human pIgR, full-length, on cells. Nature of the experiment: flow cytometry on MDCK-hpIgR cells; summary table, repeats Table 1. Background: Flow cytometry measures light scatter and fluorescence of single cells or particles in a stream.
Description: (§1) Flow Cytometry was performed as follows. To test whether VHH-mono-Fc molecules recognize cell-surface hpIgR, Madin-Darby canine kidney (MDCK) cells engineered to express full-length hpIgR were used. Cells were cultured in Dulbecco's modified Eagle's medium containing 10% fetal calf serum at 37° C. with 5% CO₂. Cells were split into equal fractions (≈70,000 cells) and incubated with increasing concentrations of VHH-mono-Fc molecules for 30 min at 4 C. […] Cells were washed twice with cold staining buffer, resuspended in running buffer and analyzed with an iQue Screener (IntelliCyt Corporation). Binding was assessed by RL1 (A647) Geomeans from the live cell population and EC50 was calculated by fitting log VHH concentration versus MFI in Prism (Graphpad).
Experiment [11] has the same target. The description is as above. The source holds these as a separate data set.
Description: as §1
A further experiment deals with T3, hpIgR_D3.
T3 construct: HIS-tagged construct from HEK293 cells; also called human pIgR extracellular domain 3 (D3); hD3
T3 HIS-tagged domain construct: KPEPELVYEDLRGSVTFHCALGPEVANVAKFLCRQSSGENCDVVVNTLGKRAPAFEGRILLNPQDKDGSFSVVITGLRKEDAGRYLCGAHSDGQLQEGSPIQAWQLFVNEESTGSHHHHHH
Briefly: ECL (MSD) heat map, HIS-tagged construct captured via anti-HIS, anti-human-Fc detection.

Experiment [12] deals with T4, human pIgR extracellular domain 1 (D1) (human, UniProt P01833 19-127).
T4 construct: HIS-tagged construct made in HEK293 cells; also called hpIgR domain-1
T4 sequence (P01833 other isoform, or with tags, fused parts or gaps limits assumed): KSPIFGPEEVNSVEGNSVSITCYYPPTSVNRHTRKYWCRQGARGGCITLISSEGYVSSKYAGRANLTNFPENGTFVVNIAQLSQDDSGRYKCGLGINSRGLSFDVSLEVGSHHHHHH
Described as above.
Description: (§2) A meso-scale discovery (MSD) platform was used for conducting epitope mapping and epitope burial studies. To test the binding of VHH-mono-Fc molecules to purified pIgR protein constructs, Streptavidin MSD plates were coated with a biotinylated anti-HIS antibody (2 μg/ml in PBS) for 1 hour at RT with 1000 rpm, washed 3× with PBT (PBS+0.1% Tween-20), incubated with blocking buffer for 1 hour at RT, incubated with His-tagged pIgR proteins (10 μg/ml in PBS) for 2 hours at RT with 1000 rpm, washed 3× with PBT, incubated with VHH-mono-Fc molecules (100 μg/ml in PBS) for 2 hours at RT with 1000 rpm, washed 3× with PBT, incubated with ruthenylated-anti-human-Fc antibody (2 μg/ml in PBS) for 1 hour at RT with 1000 rpm, washed 3× with PBT and read plates in 40 ul reading buffer using the MSD imager. ECLU values were plotted as a heatmap.
(§3) Binding of VHH-mFc molecules were tested to immobilized pIgR constructs by the electrochemiluminescence method.

Experiment [13] addresses T5, human pIgR extracellular domain 2 (D2) (human, UniProt P01833 128-242).
T5 construct: HIS-tagged construct made in HEK293 cells; also called hpIgR domain 2
The experiment is described as above.
Description: as §2, §3

Experiment [14] addresses T6, human pIgR extracellular domain 5 (D5) (human, UniProt P01833 460-565).
T6 construct: HIS-tagged construct made in HEK293 cells; also called hpIgR domain 5
The experiment is described as above.
Description: as §2, §3

In another experiment the target is T7, hpIgR_D2-D3.
T7 construct: HIS-tagged construct from HEK293 cells; also called human pIgR extracellular domain 2-domain 3 (D2-D3); hD2-D3
T7 HIS-tagged domain construct: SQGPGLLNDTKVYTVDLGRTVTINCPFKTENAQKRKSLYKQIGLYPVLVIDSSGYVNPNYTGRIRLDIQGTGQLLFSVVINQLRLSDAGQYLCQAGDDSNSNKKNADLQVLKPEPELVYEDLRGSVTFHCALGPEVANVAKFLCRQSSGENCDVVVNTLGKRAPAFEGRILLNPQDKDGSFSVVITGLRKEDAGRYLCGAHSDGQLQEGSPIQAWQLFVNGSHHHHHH
The experiment is described as above.

The target of experiment [15] is T8, human pIgR extracellular domain 4-domain 5 (D4-D5) (human, UniProt P01833 350-565).
T8 construct: HIS-tagged construct made in HEK293 cells; also called hpIgR domains 4-5
T8 chain: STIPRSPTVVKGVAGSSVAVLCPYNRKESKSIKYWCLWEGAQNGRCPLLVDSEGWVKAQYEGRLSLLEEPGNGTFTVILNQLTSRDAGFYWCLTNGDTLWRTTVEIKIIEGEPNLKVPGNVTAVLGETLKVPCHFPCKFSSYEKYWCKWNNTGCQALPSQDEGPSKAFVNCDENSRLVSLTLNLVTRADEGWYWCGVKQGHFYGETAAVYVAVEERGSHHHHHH
Briefly: ECL (MSD) heat map in ECLU: HIS-tagged construct captured via anti-HIS, VHH-mono-Fc 100 ug/ml, anti-human-Fc detection.
Description: The Electrochemiluminescence assay was performed as follows. A meso-scale discovery (MSD) platform was used for conducting epitope mapping and epitope burial studies. To test the binding of VHH-mono-Fc molecules to purified pIgR protein constructs, Streptavidin MSD plates were coated with a biotinylated anti-HIS antibody (2 μg/ml in PBS) for 1 hour at RT with 1000 rpm, washed 3× with PBT (PBS+0.1% Tween-20), incubated with blocking buffer for 1 hour at RT, incubated with His-tagged pIgR proteins (10 μg/ml in PBS) for 2 hours at RT with 1000 rpm, washed 3× with PBT, incubated with VHH-mono-Fc molecules (100 μg/ml in PBS) for 2 hours at RT with 1000 rpm, washed 3× with PBT, incubated with ruthenylated-anti-human-Fc antibody (2 μg/ml in PBS) for 1 hour at RT with 1000 rpm, washed 3× with PBT and read plates in 40 ul reading buffer using the MSD imager. ECLU values were plotted as a heatmap.

Experiment [16] addresses T1, human pIgR, full-length, on cells. Briefly: cell-based or functional assay. The source holds these as a separate data set.
Experiment [17] concerns the target T2, human pIgR extracellular domain (ECD). Briefly: BLI (Octet RED384), 1:1 fit, 25 C, PBS.
The target of experiment [18] is T8, human pIgR extracellular domain …. Briefly: BLI (Octet RED384), 1:1 fit, 25 C, PBS.
Experiment [19] addresses T2, human pIgR extracellular domain (ECD). Briefly: BLI (Octet RED384), 1:1 fit, 25 C, PBS; column kdis.
The target of experiment [20] is T8, human pIgR extracellular domain …. The experiment is described as above.
The target in experiment [21] is T9, human pIgR extracellular domain 1-domain 2 (D1-D2) (human, UniProt P01833 19-240).
T9 construct: HIS-tagged construct made in HEK293 cells
T9 sequence (P01833 other isoform, or with tags, fused parts or gaps limits assumed): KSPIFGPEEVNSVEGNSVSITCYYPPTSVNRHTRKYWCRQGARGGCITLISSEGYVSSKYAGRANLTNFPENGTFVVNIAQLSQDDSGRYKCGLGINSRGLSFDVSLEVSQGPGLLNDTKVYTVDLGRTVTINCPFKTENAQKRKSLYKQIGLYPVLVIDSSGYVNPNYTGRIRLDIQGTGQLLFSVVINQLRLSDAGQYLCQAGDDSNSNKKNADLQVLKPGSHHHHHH
Nature of the experiment: ECL (MSD) heat map, HIS-tagged construct captured via anti-HIS, anti-human-Fc detection.

The target of experiment [22] is T6, human pIgR extracellular domain 5 (D5). The experiment is described as above. The source holds these as a separate data set.

T1 sequence (P01833 19-764): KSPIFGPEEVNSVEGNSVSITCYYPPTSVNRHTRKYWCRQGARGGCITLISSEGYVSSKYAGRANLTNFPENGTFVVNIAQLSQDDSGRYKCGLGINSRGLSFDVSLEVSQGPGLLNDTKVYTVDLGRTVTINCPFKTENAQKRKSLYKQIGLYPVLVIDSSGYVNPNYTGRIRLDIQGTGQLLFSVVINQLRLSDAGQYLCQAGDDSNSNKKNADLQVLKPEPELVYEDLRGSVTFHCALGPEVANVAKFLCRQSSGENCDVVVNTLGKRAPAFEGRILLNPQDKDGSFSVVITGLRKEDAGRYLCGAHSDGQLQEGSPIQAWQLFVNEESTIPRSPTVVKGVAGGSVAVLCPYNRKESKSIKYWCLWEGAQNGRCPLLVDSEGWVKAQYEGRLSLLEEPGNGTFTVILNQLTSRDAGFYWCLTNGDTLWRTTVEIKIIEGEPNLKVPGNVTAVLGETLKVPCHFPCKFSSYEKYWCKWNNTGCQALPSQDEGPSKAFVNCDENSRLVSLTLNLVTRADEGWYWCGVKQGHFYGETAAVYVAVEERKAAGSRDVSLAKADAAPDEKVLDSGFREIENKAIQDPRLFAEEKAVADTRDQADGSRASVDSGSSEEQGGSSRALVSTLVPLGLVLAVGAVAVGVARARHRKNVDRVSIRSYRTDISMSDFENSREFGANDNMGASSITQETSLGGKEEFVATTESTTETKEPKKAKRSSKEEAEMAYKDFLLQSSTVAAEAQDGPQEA
Description for hpIgR_D3: as §2, §3

B1: VHH7-linker-mono-Fc protein (Fc fusion)
chain: EVQVVESGGGLVQAGGSLRLACVASRSIGSINVMGWYRQAPGKQRDLVARITGGGSTHYAESVKGRFTISRDNAKNTVYLQMNSLEPEDTAVYYCASMVNPIITAWGTIGVREIPDYDYWGQGTQVTVSSEPKTPKPQPQPQLQPQPNPTTESKSPKSPAPELLGGPSVFLFPPKPKDTLMISRTPEVTCVVVDVSHEDPEVKFNWYVDGVEVHNAKTKPREEQYNSTYRVVSVLTVLHQDWLNGKEYKCKVSNKALPAPIEKTISKAKGQPREPQVYTKPPSREEMTKNQVSLSCLVKGFYPSDIAVEWESNGQPENNYKTTVPVLDSDGSFRLASYLTVDKSRWQQGNVFSCSVMHEALHNHYTQKSLSLSPGK
notes: made in CHO cells; also called VHH7-mono-Fc; hpIgR_198
Consider B1, for which the “Transcytosis (Fold Incr.)” value in experiment [1] turned out to be 1.3 fold. Further, in [2], the “For. Trans. (Fold Incr.)” value amounted to 1.9 fold. Also, the “Rev. Trans (Fold Incr.)” value in experiment [2] stood at 3.3 fold. In addition, the 50% effective concentration (EC50) came out at 0.0364 µM in experiment [3]; 0.0124 µM in experiment [7]; 0.0311 µM in experiment [8]; 0.0364 µM in experiment [10]; 0.0364 µM in experiment [11]. Moreover, the Kd in experiment [4], in [5] and in experiment [6] was 0.521 µM in each case. Besides, the “Fold change in EC50” value in experiment [9] stood at 2.5 fold. Besides, the binding result is given as “no binding (tested: 100 ug/ml (single concentration))” with hpIgR_D3; “no binding (tested: 100 ug/ml (single concentration))” in experiment [12]; “no binding (tested: 100 ug/ml (single concentration))” in experiment [13]; “no binding (tested: 100 ug/ml (single concentration))” in [14]; “no binding (tested: 100 ug/ml (single concentration))” with hpIgR_D2-D3; “binds” in experiment [15].

B2: VHH11-linker-mono-Fc protein (Fc fusion)
chain: EVQVVESGGGLVQAGGSLRLSCAASGRTFTTYRMGWFRQAPGKEREFVAAIRWSGGRTLYADSVKGRFTISRDNAKNTAYLQMNNLRPEDTAVYYCAADLAEYSGTYSSPADSPAGYDYWGQGTQVTVSSEPKTPKPQPQPQLQPQPNPTTESKSPKSPAPELLGGPSVFLFPPKPKDTLMISRTPEVTCVVVDVSHEDPEVKFNWYVDGVEVHNAKTKPREEQYNSTYRVVSVLTVLHQDWLNGKEYKCKVSNKALPAPIEKTISKAKGQPREPQVYTKPPSREEMTKNQVSLSCLVKGFYPSDIAVEWESNGQPENNYKTTVPVLDSDGSFRLASYLTVDKSRWQQGNVFSCSVMHEALHNHYTQKSLSLSPGK
notes: made in CHO cells; also called VHH11-mono-Fc; hpIgR_250
B2: the “increase in their apical concentration relative to control VHH (MDCK-hpIgR monolayers)” value in experiment [16] was > 10 fold. For the same molecule, the “Transcytosis (Fold Incr.)” value in [1] was 32 fold. In addition, the “For. Trans. (Fold Incr.)” value in experiment [2] came out at 24.2 fold. For the same molecule, the “Rev. Trans (Fold Incr.)” value in [2] came out at 10.3 fold. The EC50 in experiment [3] worked out at 0.0015 µM; in experiment [7], 0.0003 µM; in experiment [8], 0.0008 µM; in [10] it was 0.0015 µM; in experiment [11], 0.0015 µM. Moreover, the equilibrium dissociation constant (Kd) in experiment [4] was 0.019 µM; in experiment [5], 0.019 µM; in [6], 0.019 µM; in experiment [17], 0.0279 µM; in [18], 0.0152 µM. Besides, the “Fold change in EC50” value in [9] worked out at 3.2 fold. The results for the kon in experiment [17] and in experiment [18] were 113000 M⁻¹ s⁻¹ and 184000 M⁻¹ s⁻¹, respectively. Besides, the koff in experiment [19] was 0.00314 s⁻¹; in experiment [20], 0.00281 s⁻¹. In addition, the binding result (with hpIgR_D3; in experiment [12]; in experiment [13]; with hpIgR_D2-D3; in experiment [21]; in experiment [22]) was “no binding (tested: 100 ug/ml (single concentration))” in each case.
